# Assay results published in article PMC6282759, “FlhF(T368A) modulates motility in the bacteriophage carrier state of Campylobacter jejuni” (Molecular Microbiology, 2018).
# Tested on: Nc1nc2c(ncn2[C@@H]2O[C@H](COP(=O)(O)OP(=O)(O)OP(=O)(O)O)[C@@H](O)[C@H]2O)c(=O)[nH]1
# Assay: purified protein
# Details: 42 °C, Tris buffer, MgCl2, GTP 0.05-1 mM
substance,measurement,value
FlhF (Campylobacter jejuni subsp. jejuni NCTC 11168 = ATCC 700819),Km,0.075 mM
same,kcat,0.0115 s⁻¹
